Assays:
GST-Bicc1-KH [1] = target: T1, GST-Bicc1-KH (UniProt Q99MQ1); test: EMSA; details: RNP1; apparent Kd; yeast tRNA present; 10 mM Tris-HCl pH 8, 100 mM KCl, 2.5 mM MgCl2, 2.5% glycerol, 1 mM DTT, 1 ug yeast tRNA in 20 uL, on ice 30 min; 1 pmol tagged RNA + 2.5 pmol DNA probe; 5% …
T1 sequence (Q99MQ1 whole entry, looked up): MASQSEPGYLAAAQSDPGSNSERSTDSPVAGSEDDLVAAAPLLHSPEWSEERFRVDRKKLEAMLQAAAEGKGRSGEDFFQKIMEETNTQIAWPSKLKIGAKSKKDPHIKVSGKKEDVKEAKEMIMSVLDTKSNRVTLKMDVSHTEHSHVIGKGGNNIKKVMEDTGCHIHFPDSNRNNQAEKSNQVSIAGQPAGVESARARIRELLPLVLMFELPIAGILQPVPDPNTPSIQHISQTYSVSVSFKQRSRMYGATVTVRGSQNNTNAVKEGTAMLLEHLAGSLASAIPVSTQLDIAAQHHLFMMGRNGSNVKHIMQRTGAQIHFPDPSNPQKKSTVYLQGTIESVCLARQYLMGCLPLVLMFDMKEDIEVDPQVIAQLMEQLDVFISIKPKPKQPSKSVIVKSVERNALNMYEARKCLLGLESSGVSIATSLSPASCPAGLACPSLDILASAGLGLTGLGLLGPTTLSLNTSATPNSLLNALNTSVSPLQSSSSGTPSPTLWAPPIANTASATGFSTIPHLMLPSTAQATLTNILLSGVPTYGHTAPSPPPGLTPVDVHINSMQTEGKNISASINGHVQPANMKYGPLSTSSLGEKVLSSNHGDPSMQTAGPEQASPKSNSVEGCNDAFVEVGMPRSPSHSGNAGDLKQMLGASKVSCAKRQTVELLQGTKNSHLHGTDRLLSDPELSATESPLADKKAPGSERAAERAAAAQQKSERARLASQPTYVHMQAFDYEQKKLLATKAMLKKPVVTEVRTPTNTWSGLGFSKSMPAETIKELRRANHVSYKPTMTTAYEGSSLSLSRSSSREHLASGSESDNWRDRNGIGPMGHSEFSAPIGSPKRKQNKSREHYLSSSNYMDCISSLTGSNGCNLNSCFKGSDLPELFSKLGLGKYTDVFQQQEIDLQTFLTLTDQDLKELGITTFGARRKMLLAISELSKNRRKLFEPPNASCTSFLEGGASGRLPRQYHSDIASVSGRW

GST-Bicc1-KH [2] = target: T1, GST-Bicc1-KH; test: competition EMSA; details: 200 nM protein, 10 mM Tris-HCl pH 8, 100 mM KCl, 2.5 mM MgCl2, 2.5% glycerol, 1 mM DTT, 1 ug yeast tRNA in 20 uL, on ice 30 min, 1 pmol tagged RNA + 2.5 pmol DNA probe, 5% …

Sequence: GCUGAGCAUCCUAGAGGAAUGCGCAGGACAUGAAUGAACCUUGGCAAGAAGCAGGAGACGCAAUAGAAAGACGUGACCUGAAUGAUGUGCAUCGGGUCAAGAGAGCAGAAUUGGACAGGGCCAGAAUACUAGACAUGGUCCCCCAGUCAUGGGUUUAGACCACUAAUAGUCGUAGAAUGUGGGGCUAGGGUAUAACUCAGUGGGAGAGGGCUUGCCUAGCAUGCAUGUCUGGGCAACAGGCUCAGG / CTGAGCCTGTTGCCCAGAC [Dand5 3'-UTR 1-225 probe]
- Kd (GST-Bicc1-KH [1]): 233 nM

Sequence: GAAAGACGUGACCUGAAUGAUGUGCAUCGGGUCAAGAGAGCAGAAUGUCUGGGCAACAGGCUCAGG / CTGAGCCTGTTGCCCAGAC [Dand5 3'-UTR 66-110 probe]
- Kd (GST-Bicc1-KH [1]): 120 nM

Sequence: GAAAGACGUAAGCUGAAUGAUGUGCAUCGGGUCAAGAGAGCAGAA [66-110 Mut2 (UGAC to UAAG)]
- IC50 (GST-Bicc1-KH [2]; vs labelled 66-110): 654 nM

Sequence: GCUGAGCAUCCUAGAGGAAUGCGCAGGACAUGAAUGAACCUUGGCAAGAAGCAGGAGACGCAAUAGAAAGACGUGACCUGAAUGAUGUGCAUCGGGUCAAGAGAGCAGAAUUGGACAGGGCCAGAAUACUAGACAUGGUCCCCCAGUCAUGGGUUUAGACCACUAAUAGUCGUAGAAUGUGGGGCUAGGGUAUAACUCAGUGGGAGAGGGCUUGCCUAGCAUGCA [Dand5 3'-UTR 1-225 competitor]
- IC50 (GST-Bicc1-KH [2]; vs labelled 1-225): 283 nM

Sequence: GAAAGACGUGACCUGAAUGAUGUGCAUCGGGUCACGUCUUUCGAA [66-110 Stem+ (GACG masked in elongated stem)]
- IC50 (GST-Bicc1-KH [2]; vs labelled 66-110): > 1000 nM

Sequence: UGAACCUUGGCAAGAAGCAGGAGACGCAAUAGAAAGACGUGACCUGAAUGAUGUGCAUCGGGUCAAGAGAGCAGAAUUGGACAGGGCCAGAAUACUAGACAUGGUCCCCCAGUCAUGGGUUUAUGUCUGGGCAACAGGCUCAGG / CTGAGCCTGTTGCCCAGAC [Dand5 3'-UTR 35-157 probe]
- Kd (GST-Bicc1-KH [1]): 120 nM

Sequence: GAAAAAGGUGACCUGAAUGAUGUGCAUCGGGUCAAGAGAGCAGAA [66-110 Mut1 (GACG to AAGG)]
- IC50 (GST-Bicc1-KH [2]; vs labelled 66-110): > 1000 nM

Sequence: UGAACCUUGGCAAGAAGCAGGAGACGCAAUAGAAAGACGUGACCUGAAUGAUGUGCAUCGGGUCAAGAGAGCAGAAUUGGACAGGGCCAGAAUACUAGACAUGGUCCCCCAGUCAUGGGUUUA [Dand5 3'-UTR 35-157 competitor]
- IC50 (GST-Bicc1-KH [2]; vs labelled 35-157): 191 nM

Sequence: UGAAGACGUGACUUCUAUUCGUAUGUGAUAUGUGGAGGUUAAAAA [226-270 8-mer (GCCCUGGG to GACGUGAC)]
- IC50 (GST-Bicc1-KH [2]; vs labelled 66-110): 392 nM

Sequence: GAAAGACGUGACCUGAAUGAUGUGCAUCGGGUCAAGAGAGCAGAA [Dand5 3'-UTR 66-110 competitor]
- IC50 (GST-Bicc1-KH [2]; vs labelled 66-110): 203 nM

Sequence: UGAAGCCCUGGGUUCUAUUCGUAUGUGAUAUGUGGAGGUUAAAAAAAGGUGAAAAUUAGCUAUAGUGUAUGAUUAGCCCUGUGUGAGAGGGAACAUUCAUGCCACAAUCACUAACUCACGUCCUCCUCAGGAAUCCUCAGCAGUCCCGCAAGGUAGAAUUUCACCAUGGGUCAUUUUACAGAUGAGGAAACCGAAGCUAU [Dand5 3'-UTR 226-425 (distal) competitor]
- IC50 (GST-Bicc1-KH [2]; vs labelled 1-225): > 1000 nM

Reference: article PMC8249388
